Substitutions are numbered along the chain they refer to.
B1: hz20-5 (antibody, V domains shown)
VH: QVQLVQSGAEVKKPGASVKVSCKASGYTFTNYGISWVRQRPGQGLEWIGEIYPRSGNTYHNEKFKDRVTMTADTSTSTVYMELSSLRSEDTAVYYCARSMITTRYWYFDVWGKGTTVTVSS
VL: DIVMTQSPDSLAVSLGERATINCRASESVDTYGNSFMHWYQQKPGQPPKLLIYLASNLESGVPDRFSGSGSGTDFTLTISSLQAEDVAVYYCQQNNEDPLTFGAGTKLELK
notes: light constant region not tied to this antibody
B2: hz20-3 (antibody, V domains shown)
VH: B1 VH with Q1E, R40A, I48M, T74K, V79A, S84R, E89D, Y95F, K113Q, T116L
VL: DIQMTQSPSSLSASVGDRVTITCRASESVDTYGNSFMHWYQQKPGKAPKLLIYLASNLESGVPSRFSGSGSGTDFTLTISSLQPEDFATYYCQQNNEDPLTFGQGTKVEIK
notes: as for B1
B3: hz20-2 (antibody, IgG1, V domains shown)
VH: B1 VH with R40A, I48M, A72T, V79A, S84R, E89D, K113Q, T116L
VL: B2 VL
notes: also called clone 20-based hz20-2 antibody
B4: hz20-10 (antibody, V domains shown)
VH: B1 VH with R40A, I48M, A72T, T74K, V79A, S84R, E89D
VL: B1 VL with S80D, A104Q, L110I
notes: as for B1
B5: hz20-6 (antibody, V domains shown)
VH: QVQLVQSGAEVKKPGASVKLSCKATGYTFTNYGISWVRQAPGQGLEWIGEIYPRSGNTYHNEKFKDRVTLTADKSSSTAYMEFRSLRSDDTAVYFCARSMITTRYWYFDVWGQGTLVTVSS
VL: B2 VL
notes: as for B1
B6: hz20-11 (antibody, V domains shown)
VH: B1 VH with K12A, I48M, A72T, V79A, S84R
VL: B1 VL with A104Q, L110I
notes: as for B1
B7: hz20-9 (antibody, V domains shown)
VH: B1 VH with R40A, I48M, A72T, T74K, V79A, S84R, E89D
VL: B1 VL with A104Q, L110I
notes: as for B1
B8: hz20-13 (antibody, V domains shown)
VH: B1 VH with I48M, A72T, T74K, V79A, S84R
VL: B1 VL with A104Q, L110I
notes: as for B1
B9: hz20-12 (antibody, V domains shown)
VH: B1 VH with K12A, I48M, A72T, V79A, S84R
VL: B1 VL with S80D, A104Q, L110I
notes: as for B1
B10: hz20-14 (antibody, V domains shown)
VH: B1 VH with I48M, A72T, T74K, V79A, S84R
VL: B1 VL with S80D, A104Q, L110I
notes: as for B1
B11: hz20-8 (antibody, V domains shown)
VH: B1 VH with R40A, I48M, A72T, V79A, S84R, E89D
VL: B1 VL with S80D, A104Q, L110I
notes: as for B1
B12: hz13-1 (antibody, V domains shown)
VH: EVQLVQSGAEVKKPGASVKVSCTSSDFNIKDHFIHWVRQAPGKGLEWMGRIDPEDDETKYAPKFQDRVTMTADTSTDTAYMELSSLRSEDTAVYYCAGYGNYEGAMDYWGQGTLVTVSS
VL: DIQMTQSPSSLSASVGDRVTITCRASENVNNYGIGFMNWYQQKPGKAPKLLIYAASRRGSGVPSRFSGSGSGTDFTLTISSLQPEDFATYYCQQSKEVPYTFGQGTKVEIK
notes: as for B1
B13: hz13-6 (antibody, V domains shown)
VH: B12 VH with Q3L, V20L, Y94F
VL: B12 VL with Q3V, I21L, Y40F, L82M, Y91F, V108L
notes: as for B1
B14: hz13-3 (antibody, V domains shown)
VH: B12 VH
VL: B12 VL with Q3V, I21L, Y40F, L82M, Y91F, V108L
notes: as for B1
B15: hz13-8 (antibody, V domains shown)
VH: B12 VH with Q3L, V20L, M48I, M70I, M81L, Y94F
VL: B12 VL with Y40F, Y91F
notes: as for B1
B16: hz13-7 (antibody, V domains shown)
VH: B12 VH with Q3L, V20L, M48I, M70I, M81L, Y94F
VL: B12 VL
notes: as for B1
B17: hz13-4 (antibody, V domains shown)
VH: B12 VH with Q3L, V20L, Y94F
VL: B12 VL
notes: as for B1
B18: hz13-2 (antibody, V domains shown)
VH: B12 VH
VL: B12 VL with Y40F, Y91F
notes: as for B1

biological target: T1, recombinant human PAD4 (human, UniProt Q9UM07 1-663); test: cell-based or functional assay
T1 sequence (Q9UM07 whole entry): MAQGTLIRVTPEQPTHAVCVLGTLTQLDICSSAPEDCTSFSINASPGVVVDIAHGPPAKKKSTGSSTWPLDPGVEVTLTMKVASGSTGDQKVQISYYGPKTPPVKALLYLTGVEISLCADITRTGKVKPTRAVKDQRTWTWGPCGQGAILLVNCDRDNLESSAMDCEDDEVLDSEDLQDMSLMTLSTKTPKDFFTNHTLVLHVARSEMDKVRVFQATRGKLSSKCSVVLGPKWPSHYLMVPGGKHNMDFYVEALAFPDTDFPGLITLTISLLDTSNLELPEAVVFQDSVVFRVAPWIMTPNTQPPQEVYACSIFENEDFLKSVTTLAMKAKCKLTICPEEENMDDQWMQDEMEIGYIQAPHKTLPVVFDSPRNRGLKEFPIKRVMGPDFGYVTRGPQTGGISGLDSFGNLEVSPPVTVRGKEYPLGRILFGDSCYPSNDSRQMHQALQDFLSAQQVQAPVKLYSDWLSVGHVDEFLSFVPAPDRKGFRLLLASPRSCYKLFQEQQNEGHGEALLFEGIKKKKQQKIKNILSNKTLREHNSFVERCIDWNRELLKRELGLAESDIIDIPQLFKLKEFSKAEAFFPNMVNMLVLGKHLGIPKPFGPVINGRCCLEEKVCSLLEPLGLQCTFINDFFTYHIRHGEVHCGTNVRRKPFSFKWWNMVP

Binder | IC50 (average), PAD4 citrullination of peptide …, RapidFire MS [pM]
B1 | 56500
B2 | 58000
B3 | 73000
B4 | 57400
B5 | 64000
B6 | 65700
B7 | 107000
B8 | 52600
B9 | 59000
B10 | 56900
B11 | 71900
B12 | 125000
B13 | 39100
B14 | 23300
B15 | 62800
B16 | 170000
B17 | 115000
B18 | 96400

biological target: T1, recombinant human PAD4; test: SPR 37 C, captured antibody, PAD4 analyte, 2 mM EDTA
Method: (§1) For SPR measurements, either an anti-human capture surface or Protein A surface (Cytiva catalog #29127555) was used. Anti-human capture surface was prepared by immobilizing anti-human capture antibody (Cytiva catalog #29234600) onto flow cells of a CM5 or CM4 biosensor following the manufacturer's amine coupling protocol (Cytiva catalog #BR-1006-33). SPR experiments were conducted at 37° C. using HBS-P (150 mM NaCl, 10 mM HEPES, pH 7.6, 0.05% Tween-20) (TEKNOVA catalog #H8032) with additional 150 mM NaCl and 1 mM or 2 mM CaCl₂) (see Table 2) or 2 mM EDTA (see Table 3) as running buffer. Antibodies were diluted to 1.5 μg/mL in the running buffer, and were captured across active biosensor flow cells at 10 μL/min for 15 to 30 seconds. […] The association and dissociation of the antibodies with PAD4 were measured. One 30 second injection followed by one 15 second injection of 10 mM glycine pH 1.5 was used to regenerate the Protein A capture surface between assay cycles. For anti-human capture surface, two 30 second injections of 3 M MgCl₂ was used for regeneration. SPR measurements for mAb20 and mAb 13 SPR were done in the presence of 2 mM CaCl₂). The remaining antibodies were tested in the presence of 1 mM CaCl₂).
(§2) Rate constants kₒₙ and koff were derived from reference flow cell- and 0 nM blank-subtracted sensorgrams, and were fit to a 1:1 binding model in Biacore® Insight Evaluation software version 3.0.12.15655. Deviations from 1:1 binding model were observed, which may be caused by increased dimerization of PAD4 at higher concentrations. The equilibrium dissociation constant, KD, was calculated as the ratio of rate constants koff/kₒₙ for each PAD4 antibody. For those antibodies that were tested in multiple SPR experiments, the average value and standard deviation from two or three separate experiments are listed in Tables 2 and 3.

Binder | Kd [pM] | koff [s⁻¹] | kon [M⁻¹ s⁻¹]
B1 | 1700 | 0.0004 | 240000
B2 | 900 | 0.00031 | 340000
B3 | 1000 | 0.00032 | 310000
B4 | 400 | 0.00018 | 480000
B5 | 1200 | 0.00037 | 300000
B6 | 600 | 0.00022 | 390000
B7 | 400 | 0.00018 | 480000
B8 | 400 | 0.00018 | 440000
B9 | 600 | 0.00021 | 380000
B10 | 400 | 0.00018 | 450000
B11 | 600 | 0.00022 | 360000
B12 | 300 | 0.0004 | 1.3e+06
B13 | 100 | 0.00023 | 1.7e+06
B14 | 100 | 0.00021 | 1.9e+06
B15 | 100 | 0.00016 | 1.9e+06
B16 | 100 | 0.00025 | 2e+06
B17 | 200 | 0.00032 | 1.4e+06
B18 | 100 | 0.00025 | 2e+06

biological target: T1, recombinant human PAD4; test: SPR 37 C, captured antibody, PAD4 analyte, 1 mM CaCl2
Method: Their binding to human PAD4 was measured by Surface Plasmon Resonance (SPR). SPR measurements were performed with a Biacore® 8K, 8K+, or T200 instrument (Cytiva). The association rate constants, kₒₙ, dissociation rate constants, koff, and equilibrium dissociation constants, KD, of the antibodies with PAD4 were determined from these SPR measurements.
as §1
as §2, with “antibody.” for “antibody. For those antibodies that were tested in multiple SPR experiments, the average value and standard deviation from two or three separate experiments are listed in Tables 2 and 3.”

Binder | Kd [pM] | koff [s⁻¹] | kon [M⁻¹ s⁻¹]
B1 | 1900 | 0.00045 | 250000
B2 | 500 | 0.00023 | 500000
B3 | 1100 | 0.00029 | 290000
B4 | 300 | 0.00017 | 640000
B5 | 600 | 0.00025 | 390000
B6 | 900 | 0.00025 | 300000
B7 | 300 | 0.00015 | 490000
B8 | 500 | 0.00019 | 390000
B9 | 600 | 0.00019 | 320000
B10 | 600 | 0.0002 | 340000
B11 | 800 | 0.00025 | 320000
B12 | 200 | 0.00015 | 880000
B13 | 100 | 0.00012 | 1.6e+06
B14 | 100 | 0.00013 | 1.5e+06
B15 | 100 | 0.00014 | 1.7e+06
B16 | 100 | 0.00015 | 1.2e+06
B17 | 100 | 0.00013 | 930000
B18 | 100 | 0.00012 | 1.7e+06

biological target: extracellular matrix (ECM) proteins; test: ECM plate ELISA (Matrigel), 1 uM antibody, A450 over wells without sample

Binder | ECM Score (1 µM)
B1 | 3
B2 | 20
B3 | 6
B4 | 18
B5 | 16
B6 | 4
B7 | 19
B8 | 19
B9 | 3
B10 | 20
B11 | 4
B12 | 1
B13 | 1
B14 | 1
B15 | 2
B16 | 1
B17 | 1
B18 | 1
